Data: patent US20110118181A1 (INSTITUT DE RECHERHES CLINIQUES DE MONTREAL, published 2011)
Values joined by “and” are separate entries in the source; they are usually repeats but may differ in a detail not shown here. Equal entries are not always repeated.

B1: AnxA1-HA (human AnxA1 with C-terminal HA epitope) (other)
chain: MAMVSEFLKQAWFIENEEQEYVQTVKSSKGGPGSAVSPYPTFNPSSDVAALHKAIMVKGVDEATIIDILTKRNNAQRQQIKAAYLQETGKPLDETLKKALTGHLEEVVLALLKTPAQFDADELRAAMKGLGTDEDTLIEILASRTNKEIRDINRVYREELKRDLAKDITSDTSGDFRNALLSLAKGDRSEDFGVNEDLADSDARALYEAGERRKGTDVNVFNTILTTRSYPQLRRVFQKYTKYSKHDMNKVLDLELKGDIEKCLTAIVKCATSKPAFFAEKLHQAMKGVGTRHKALIRIMVSRSEIDMNDIKAFYQKMYGISLCQAILDETKGDYEKILVALCGGNYPYDVPDYA
B2: AnxA2 ΔR2-HA (deletion of aa 109-192) (other)
chain: MSTVHEILCKLSLEGDHSTPPSAYGSVKAYTNFDAERDALNIETAIKTKGVDEVTIVNILTNRSNAQRQDIAFAYQRRTKKELASALKSALSGHLETVILGLLKTPAQQDARDLYDAGVKRKGTDVPKWISIMTERSVPHLQKVFDRYKSYSPYDMLESIRKEVKGDLENAFLNLVQCIQNKPLYFADRLYDSMKGKGTRDKVLIRIMVSRSEVDMLKIRSEFKRKYGKSLYYYIQQDTKGDYQKALLYLCGGDDYPYDVPDYA
notes: also called Δ109-192 (R2)
B3: AnxA2 ΔR4-HA (deletion of aa 269-339) (other)
chain: MSTVHEILCKLSLEGDHSTPPSAYGSVKAYTNFDAERDALNIETAIKTKGVDEVTIVNILTNRSNAQRQDIAFAYQRRTKKELASALKSALSGHLETVILGLLKTPAQYDASELKASMKGLGTDEDSLIEIICSRTNQELQEINRVYKEMYKTDLEKDIISDTSGDFRKLMVALAKGRRAEDGSVIDYELIDQDARDLYDAGVKRKGTDVPKWISIMTERSVPHLQKVFDRYKSYSPYDMLESIRKEVKGDLENAFLNLVQCIQNKPLYPYDVPDYA
notes: also called Δ269-339 (R4)
B4: AnxA2 ΔR1-HA (deletion of aa 37-108) (other)
chain: MSTVHEILCKLSLEGDHSTPPSAYGSVKAYTNFDAEYDASELKASMKGLGTDEDSLIEIICSRTNQELQEINRVYKEMYKTDLEKDIISDTSGDFRKLMVALAKGRRAEDGSVIDYELIDQDARDLYDAGVKRKGTDVPKWISIMTERSVPHLQKVFDRYKSYSPYDMLESIRKEVKGDLENAFLNLVQCIQNKPLYFADRLYDSMKGKGTRDKVLIRIMVSRSEVDMLKIRSEFKRKYGKSLYYYIQQDTKGDYQKALLYLCGGDDYPYDVPDYA
notes: also called Δ37-108 (R1)
B5: human Annexin A1 (AnxA1), untagged (other, UniProt P04083 2-346, looked up)
chain: AMVSEFLKQAWFIENEEQEYVQTVKSSKGGPGSAVSPYPTFNPSSDVAALHKAIMVKGVDEATIIDILTKRNNAQRQQIKAAYLQETGKPLDETLKKALTGHLEEVVLALLKTPAQFDADELRAAMKGLGTDEDTLIEILASRTNKEIRDINRVYREELKRDLAKDITSDTSGDFRNALLSLAKGDRSEDFGVNEDLADSDARALYEAGERRKGTDVNVFNTILTTRSYPQLRRVFQKYTKYSKHDMNKVLDLELKGDIEKCLTAIVKCATSKPAFFAEKLHQAMKGVGTRHKALIRIMVSRSEIDMNDIKAFYQKMYGISLCQAILDETKGDYEKILVALCGGN
notes: Overexpressed in CHO cells as control
B6: AnxA2 ΔR3-HA (deletion of aa 193-268) (other)
chain: MSTVHEILCKLSLEGDHSTPPSAYGSVKAYTNFDAERDALNIETAIKTKGVDEVTIVNILTNRSNAQRQDIAFAYQRRTKKELASALKSALSGHLETVILGLLKTPAQYDASELKASMKGLGTDEDSLIEIICSRTNQELQEINRVYKEMYKTDLEKDIISDTSGDFRKLMVALAKGRRAEDGSVIDYELIDYFADRLYDSMKGKGTRDKVLIRIMVSRSEVDMLKIRSEFKRKYGKSLYYYIQQDTKGDYQKALLYLCGGDDYPYDVPDYA
notes: also called Δ193-268 (R3)
B7: CHRD-V5 (C-terminal Cys-His-rich domain of PCSK9, V5-tagged) (other, human, UniProt Q8NBP7 455-692, looked up)
chain: LFCRTVWSAHSGPTRMATAVARCAPDEELLSCSSFSRSGKRRGERMEAQGGKLVCRAHNAFGGEGVYAIARCCLLPQANCSVHTAPPAEASMGTRVHCHQQGHVLTGCSSHWEVEDLGTHKPPVLRPRGQPNQCVGHREASIHASCCHAPGLECKVKEHGIPAPQEQVTVACEEGWTLTGCSALPGTSHVLGAYAVDNTCVVRSRDVSTTGSTSEGAVTAVAICCRSRHLAQASQELQ
notes: domain: CHRD; Conditioned medium of CHO-K1 cells; also called CHRD alone; not shown: C-terminal V5 tag
B8: peptide No 896970 (73-mer AnxA2 R1 peptide extending from amino acids 25 to 97) (peptide)
peptide: GSVKAYTNFDAERDALNIETAIKTKGVDEVTIVNILTNRSNAQRQDIAFAYQRRTKKELASALKSALSGHLET
notes: also called AnxA2 25-97 peptide
B9: purified AnxA1-(His)6 (other)
chain: MAMVSEFLKQAWFIENEEQEYVQTVKSSKGGPGSAVSPYPTFNPSSDVAALHKAIMVKGVDEATIIDILTKRNNAQRQQIKAAYLQETGKPLDETLKKALTGHLEEVVLALLKTPAQFDADELRAAMKGLGTDEDTLIEILASRTNKEIRDINRVYREELKRDLAKDITSDTSGDFRNALLSLAKGDRSEDFGVNEDLADSDARALYEAGERRKGTDVNVFNTILTTRSYPQLRRVFQKYTKYSKHDMNKVLDLELKGDIEKCLTAIVKCATSKPAFFAEKLHQAMKGVGTRHKALIRIMVSRSEIDMNDIKAFYQKMYGISLCQAILDETKGDYEKILVALCGGNHHHHHH

Assays:
[1] = target: T1, PCSK9-V5 (full-length human PCSK9 with C-terminal V5 tag) (human, UniProt Q8NBP7 31-692); test: co-immunoprecipitation with anti-V5 from co-transfected CHO-K1 cells
T1 construct: Used as conditioned medium of CHO-K1 cells (Far Western, pull-down) or co-expressed in cells (co-IP); The background says PCSK9 is secreted as a prosegment-PCSK9 heterodimer; also called full-length (FL) PCSK9-V5; native PCSK9; not shown: C-terminal V5 tag
Procedure: (§1) FIG. 4. Characterization of the interaction of PCSK9 with AnxA2. (A) PCSK9-V5 Far Western blot of lysates of COS-1 cells, wild type (WT) CHO-K1 cells, CHO-K1 cells overexpressing an empty vector (pIRES), AnxA1 or AnxA2. (B) Poly-histidine pull-down assay. Purified native AnxA2-(His)₆ or AnxA1-(His)₆ were immobilized on cobalt chelate beads and incubated with PCSK9-V5. […] PCSK9 (heavy arrow) and its furin-cleaved form (PCSK9-Δ218; light arrow) were pulled-down by AnxA2. (C) Co-immunoprecipitation experiments of CHO-K1 cells co-transfected with PCSK9-V5 and either AnxA1-HA, AnxA2-HA or with AnxA2-HA and p11. […] Expression of the transfected constructs was analyzed by Western blotting of cell lysates using the anti-V5-HRP or anti-HA-HRP antibodies. (D, left panel) PCSK9-V5 Far Western blots of purified AnxA2-(His)₆ in the absence or presence of reducing agents. Note that in non-reducing conditions, PCSK9-V5 binds both the dimer and monomer forms of AnxA2. (D, right panel) Western blots of the purified AnxA2-(His)₆ using the anti-AnxA2 mAb in non-reducing or reducing conditions. (E, upper panel) Media from CHO-K1 cells expressing PCSK9-V5 or the CHRD-V5 were separated by SDS-PAGE (8%), transferred onto nitrocellulose, incubated with purified AnxA2-(His)₆ and probed with the anti-His-HRP antibody. […]

[2] = target: T1, PCSK9-V5 (full-length human PCSK9 with …); test: Far Western blot of HEK293 lysates
[3] = target: T1, PCSK9-V5 (full-length human PCSK9 with …); test: Far Western blot of lysates of CHO cells overexpressing AnxA1
Procedure: Lysates (20 to 30 μg protein), media or purified AnxA2-(His)₆ were heated in reducing or non-reducing Laemmli sample buffer, resolved by SDS-PAGE on 8% glycine gels and electro-transferred onto nitrocellulose membranes (GE Healthcare). Following 1 h incubation in 5% skim milk in Tris-Buffered Saline-0.1% Tween (TBST), membranes where incubated with conditioned media of CHO-K1 cells overexpressing either an empty vector (pIRES-V5), PC5A-V5, CHRD-V5, pIRES-D374Y, PCSK9-V5 or its V5-tagged mutants, or incubated with purified AnxA2-(His)₆ for 3 h at room temperature. […] For competition experiments, 10 μg of His-tagged PCSK9 or CHRD were added to the PCSK9-V5 media before Far Western blotting. For PCSK9 binding requirements with the ˜33 kDa protein, 1M NaCl, 10 mg/ml heparin, 1M NaCl+10 mg/ml heparin, or 100 mM EDTA were added to the PCSK9-V5 conditioned media used for Far Western blotting.

[4] = target: B4; test: Far Western blot of HEK293 lysates
[5] = target: T2, ˜33 kDa protein of COS-1 cells, identified as monkey Annexin A2 (AnxA2; XP-001155637) (monkey); test: Far Western blot of COS-1 lysates
T2 construct: Denatured on nitrocellulose in Far Western blots; native in co-IP; The ˜33 kDa band was also seen in BSC40 and HuH7 lysates; also called endogenous Annexin A2
Procedure: All of these were detected by the HRP-tagged V5 mAb. (B) The COS-1 cells soluble fraction (supernatant S3; 3 μg protein) was analyzed by Far Western blot and compared to 30 μg protein loads from other subcellular fractions. […] (D) For competition experiments, purified PCSK9-His or CHRD-His were added to the PCSK9-V5 conditioned media used for Far Western blotting. (E) PCSK9-V5-binding requirements were tested by adding 1M NaCl, 10 mg/ml heparin, 1M NaCl+10 mg/ml heparin, or 100 mM EDTA to the PCSK9-V5 conditioned media used for Far Western blotting. Heavy arrows point to the migration position of the ˜33 kDa protein, and the light arrow to that of the ˜45 kDa protein. (−) denotes a control lane where nothing was added to the Far Western blotting media;
Lysates (20 to 30 μg protein), media or purified AnxA2-(His)₆ were heated in reducing or non-reducing Laemmli sample buffer, resolved by SDS-PAGE on 8% glycine gels and electro-transferred onto nitrocellulose membranes (GE Healthcare). Following 1 h incubation in 5% skim milk in Tris-Buffered Saline-0.1% Tween (TBST), membranes where incubated with conditioned media of CHO-K1 cells overexpressing either an empty vector (pIRES-V5), PC5A-V5, CHRD-V5, pIRES-D374Y, PCSK9-V5 or its V5-tagged mutants, or incubated with purified AnxA2-(His)₆ for 3 h at room temperature. […]

[6] = target: T3, purified biotin-conjugated PCSK9 (UniProt Q8NBP7 31-692, limits assumed, biotin-conjugated (site not stated)); test: AlphaScreen competition of biotin-PCSK9 binding to His6-LDLR ectodomain
T3 construct: Coated on streptavidin donor beads; also called PCSK9 (AlphaScreen donor beads)
Procedure: AlphaScreen® (Perkin Elmer) streptavidin donor beads were coated with purified biotin-conjugated PCSK9 and AlphaScreen® nickel chelate acceptor beads were coated with purified His6-conjugated LDLR ectodomain. Competition in the AlphaScreen® PCSK9-LDLR interaction assay was measured, in the presence of increasing concentrations of AnxA2-derived peptides, as a reduction of fluorescence.

[7] = target: T1, PCSK9-V5 (full-length human PCSK9 with …); test: poly-histidine pull-down, AnxA1-(His)6 on cobalt chelate beads, PCSK9-V5 medium
Procedure: as §1, with “conditions.” for “conditions. (E, upper panel) Media from CHO-K1 cells expressing PCSK9-V5 or the CHRD-V5 were separated by SDS-PAGE (8%), transferred onto nitrocellulose, incubated with purified AnxA2-(His)₆ and probed with the anti-His-HRP antibody.”
20 μg of purified AnxA2-(His)₆ or AnxA1-(His)₆ or no proteins (for negative control) were immobilized onto a cobalt chelate resin (Thermo Scientific). […] Supernatants were analyzed by Western blot as described above using the anti-V5-HRP or anti-His-HRP antibodies.

T2 sequence (P07355 2-339): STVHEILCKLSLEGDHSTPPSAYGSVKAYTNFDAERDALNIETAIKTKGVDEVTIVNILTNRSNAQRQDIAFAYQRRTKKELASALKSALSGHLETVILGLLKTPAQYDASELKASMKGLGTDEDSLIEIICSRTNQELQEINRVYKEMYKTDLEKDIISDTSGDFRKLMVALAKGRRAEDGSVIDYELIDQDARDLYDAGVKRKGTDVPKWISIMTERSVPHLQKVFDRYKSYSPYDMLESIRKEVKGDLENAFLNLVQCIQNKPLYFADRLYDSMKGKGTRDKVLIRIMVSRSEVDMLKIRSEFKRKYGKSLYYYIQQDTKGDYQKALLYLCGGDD

Binder: B1
binding result [1]: no binding

Binder: B2
binding result [2]: binds

Binder: B3
binding result [2]: binds

Binder: B4
binding result [2]: no binding

Binder: B5
binding result [3]: no binding

Binder: B6
binding result [2]: binds

Binder: B7
binding result [4]: no binding | fold binding against full length PCSK9 [5]: 3 fold

Binder: B8
IC50 [6]: 500 nM to 1 µM (2×) and 750 nM

Binder: B9
binding result [7]: no binding
